From patent US7658917 (PRAECIS PHARMACEUTICALS, dated 2010)
Ends that are not written are not given here. * marks the point of attachment. Cholyl = C[C@H](CCC(=O)*)[C@H]1CC[C@H]2[C@@H]3[C@H](O)C[C@@H]4C[C@H](O)CC[C@]4(C)[C@H]3C[C@H](O)[C@]12C; iminobiotinyl = N=C1N[C@H]2[C@H](CS[C@H]2CCCCC(=O)*)N1; FICO = 5-(and 6-)-carboxyfluoresceinyl

B1: iminobiotinyl-Aβ21-35 (peptide)
peptide: iminobiotinyl-AEDVGSNKGAIIGLM
B2: FICO-Aβ16-30 (peptide)
peptide: {FICO}-KLVFFAEDVGSNKGA
B3: iminobiotinyl-Aβ16-30 (peptide)
peptide: iminobiotinyl-KLVFFAEDVGSNKGA
B4: iminobiotinyl-Aβ11-25 (peptide)
peptide: iminobiotinyl-EVHHQKLVFFAEDVG
B5: FICO-Aβ1-15 (peptide)
peptide: {FICO}-DAEFRHDSGYEVHHQ
B6: iminobiotinyl-Aβ26-40 (peptide)
peptide: iminobiotinyl-SNKGAIIGLMVGGVV
B7: FICO-Aβ21-35 (peptide)
peptide: {FICO}-AEDVGSNKGAIIGLM
B8: FICO-Aβ6-20 (peptide)
peptide: {FICO}-HDSGYEVHHQKLVFF
B9: iminobiotinyl-Aβ6-20 (peptide)
peptide: iminobiotinyl-HDSGYEVHHQKLVFF
B10: cholyl-Aβ7-20 (peptide)
peptide: Cholyl-DSGYEVHHQKLVFF
B11: cholyl-Aβ6-10-amide (peptide)
peptide: Cholyl-HDSGY-NH2
SMILES: C[C@H](CCC(=O)N[C@@H](Cc1c[nH]cn1)C(=O)N[C@@H](CC(=O)O)C(=O)N[C@@H](CO)C(=O)NCC(=O)N[C@@H](Cc1ccc(O)cc1)C(N)=O)[C@H]1CC[C@H]2[C@@H]3[C@H](O)C[C@@H]4C[C@H](O)CC[C@]4(C)[C@H]3C[C@H](O)[C@]12C
B12: cholyl-Aβ6-20-amide (peptide)
peptide: Cholyl-HDSGYEVHHQKLVFF-NH2
SMILES: CC(C)C[C@H](NC(=O)[C@H](CCCCN)NC(=O)[C@H](CCC(N)=O)NC(=O)[C@H](Cc1c[nH]cn1)NC(=O)[C@H](Cc1c[nH]cn1)NC(=O)[C@@H](NC(=O)[C@H](CCC(=O)O)NC(=O)[C@H](Cc1ccc(O)cc1)NC(=O)CNC(=O)[C@H](CO)NC(=O)[C@H](CC(=O)O)NC(=O)[C@H](Cc1c[nH]cn1)NC(=O)CC[C@@H](C)[C@H]1CC[C@H]2[C@@H]3[C@H](O)C[C@@H]4C[C@H](O)CC[C@]4(C)[C@H]3C[C@H](O)[C@]12C)C(C)C)C(=O)N[C@H](C(=O)N[C@@H](Cc1ccccc1)C(=O)N[C@@H](Cc1ccccc1)C(N)=O)C(C)C
B13: cholyl-Aβ6-17-amide (peptide)
peptide: Cholyl-HDSGYEVHHQKL-NH2
SMILES: CC(C)C[C@H](NC(=O)[C@H](CCCCN)NC(=O)[C@H](CCC(N)=O)NC(=O)[C@H](Cc1c[nH]cn1)NC(=O)[C@H](Cc1c[nH]cn1)NC(=O)[C@@H](NC(=O)[C@H](CCC(=O)O)NC(=O)[C@H](Cc1ccc(O)cc1)NC(=O)CNC(=O)[C@H](CO)NC(=O)[C@H](CC(=O)O)NC(=O)[C@H](Cc1c[nH]cn1)NC(=O)CC[C@@H](C)[C@H]1CC[C@H]2[C@@H]3[C@H](O)C[C@@H]4C[C@H](O)CC[C@]4(C)[C@H]3C[C@H](O)[C@]12C)C(C)C)C(N)=O
B14: cholyl-Aβ6-19-amide (PPI-321 as printed in Table III) (peptide)
peptide: Cholyl-HDSGYEVHHQKLVF-NH2
SMILES: CC(C)C[C@H](NC(=O)[C@H](CCCCN)NC(=O)[C@H](CCC(N)=O)NC(=O)[C@H](Cc1c[nH]cn1)NC(=O)[C@H](Cc1c[nH]cn1)NC(=O)[C@@H](NC(=O)[C@H](CCC(=O)O)NC(=O)[C@H](Cc1ccc(O)cc1)NC(=O)CNC(=O)[C@H](CO)NC(=O)[C@H](CC(=O)O)NC(=O)[C@H](Cc1c[nH]cn1)NC(=O)CC[C@@H](C)[C@H]1CC[C@H]2[C@@H]3[C@H](O)C[C@@H]4C[C@H](O)CC[C@]4(C)[C@H]3C[C@H](O)[C@]12C)C(C)C)C(=O)N[C@H](C(=O)N[C@@H](Cc1ccccc1)C(N)=O)C(C)C
B15: cholyl-Aβ6-14-amide (peptide)
peptide: Cholyl-HDSGYEVHH-NH2
SMILES: CC(C)[C@H](NC(=O)[C@H](CCC(=O)O)NC(=O)[C@H](Cc1ccc(O)cc1)NC(=O)CNC(=O)[C@H](CO)NC(=O)[C@H](CC(=O)O)NC(=O)[C@H](Cc1c[nH]cn1)NC(=O)CC[C@@H](C)[C@H]1CC[C@H]2[C@@H]3[C@H](O)C[C@@H]4C[C@H](O)CC[C@]4(C)[C@H]3C[C@H](O)[C@]12C)C(=O)N[C@@H](Cc1c[nH]cn1)C(=O)N[C@@H](Cc1c[nH]cn1)C(N)=O
B16: cholyl-Aβ16-20 (Phe19->Ala) (peptide)
peptide: Cholyl-KLVAF-OH
SMILES: CC(C)C[C@H](NC(=O)[C@H](CCCCN)NC(=O)CC[C@@H](C)[C@H]1CC[C@H]2[C@@H]3[C@H](O)C[C@@H]4C[C@H](O)CC[C@]4(C)[C@H]3C[C@H](O)[C@]12C)C(=O)N[C@H](C(=O)N[C@@H](C)C(=O)N[C@@H](Cc1ccccc1)C(=O)O)C(C)C
B17: iminobiotinyl-Aβ16-20 (peptide)
peptide: iminobiotinyl-KLVFF-OH
B18: cholyl-Aβ17-21 (peptide)
peptide: Cholyl-LVFFA-OH
SMILES: CC(C)C[C@H](NC(=O)CC[C@@H](C)[C@H]1CC[C@H]2[C@@H]3[C@H](O)C[C@@H]4C[C@H](O)CC[C@]4(C)[C@H]3C[C@H](O)[C@]12C)C(=O)N[C@H](C(=O)N[C@@H](Cc1ccccc1)C(=O)N[C@@H](Cc1ccccc1)C(=O)N[C@@H](C)C(=O)O)C(C)C
B19: Cholyl-penta-alanine (peptide)
peptide: Cholyl-AAAAA-OH
SMILES: C[C@H](NC(=O)[C@H](C)NC(=O)[C@H](C)NC(=O)[C@H](C)NC(=O)[C@H](C)NC(=O)CC[C@@H](C)[C@H]1CC[C@H]2[C@@H]3[C@H](O)C[C@@H]4C[C@H](O)CC[C@]4(C)[C@H]3C[C@H](O)[C@]12C)C(=O)O
B20: cholyl-Aβ16-19-amide (PPI-321 as printed in Table IV) (peptide)
peptide: Cholyl-KLVF-NH2
SMILES: CC(C)C[C@H](NC(=O)[C@H](CCCCN)NC(=O)CC[C@@H](C)[C@H]1CC[C@H]2[C@@H]3[C@H](O)C[C@@H]4C[C@H](O)CC[C@]4(C)[C@H]3C[C@H](O)[C@]12C)C(=O)N[C@H](C(=O)N[C@@H](Cc1ccccc1)C(N)=O)C(C)C
B21: cholyl-Aβ16-20 (Val18->Thr) (peptide)
peptide: Cholyl-KLTFF
B22: unmodified Aβ16-20 (peptide)
peptide: H-KLVFF-OH
B23: cholyl-Aβ15-19 (peptide)
peptide: Cholyl-QKLVF-OH
SMILES: CC(C)C[C@H](NC(=O)[C@H](CCCCN)NC(=O)[C@H](CCC(N)=O)NC(=O)CC[C@@H](C)[C@H]1CC[C@H]2[C@@H]3[C@H](O)C[C@@H]4C[C@H](O)CC[C@]4(C)[C@H]3C[C@H](O)[C@]12C)C(=O)N[C@H](C(=O)N[C@@H](Cc1ccccc1)C(=O)O)C(C)C
B24: cholyl-Aβ16-20-amide (peptide)
peptide: Cholyl-KLVFF-NH2

The binders below were run against natural β-amyloid peptide β-AP1-40 (human) (assay: cell-based or functional assay).
natural β-amyloid peptide β-AP1-40 (human), sequence (peptide, as listed by the source): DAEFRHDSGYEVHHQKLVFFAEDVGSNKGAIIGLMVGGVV

| Binder | % Inhibition of Plateau; nucleation assay; 100 mole % [%] | Fold Increase in Lag Time; nucleation assay; 100 mole % [fold] |
| --- | --- | --- |
| B1 | 66 | ~1 |
| B2 | 59 | 1.6 |
| B3 | 55 | 1.2 |
| B4 | 40 | 1.2 |
| B5 | 30 | ~1 |
| B6 | ~0 | 2.3 |
| B7 | 25 | 1.2 |
| B8 | ~0 | 1.9 |
| B9 | 44 | 1.6 |

Molecular target: natural β-amyloid peptide β-AP1-40 (human)
Experiment: cell-based or functional assay
Remark: another data set of the same source

| Binder | % Inhibition of Plateau; nucleation assay; 33 mole % [%] | % Inhibition of Plateau; nucleation assay; 100 mole % [%] | Fold Increase in Lag Time; nucleation assay; 33 mole % [fold] | Fold Increase in Lag Time; nucleation assay; 100 mole % [fold] |
| --- | --- | --- | --- | --- |
| B10 | ~0 | 100 | 2 | > 4.5 |
| B11 | 13 | – | 1.1 | – |
| B12 | ~0 | – | 1.8 | – |
| B13 | ~0 | – | 1.8 | – |
| B14 | ~0 | – | 1.4 | – |
| B15 | 29 | – | 1 | – |

Molecular target: natural β-amyloid peptide β-AP1-40 (human)
Experiment: cell-based or functional assay
Remark: another data set of the same source

| Binder | % Inhibition of Plateau; nucleation assay; 100 mole % [%] | Fold Increase in Lag Time; nucleation assay; 100 mole % [fold] | % Inhibition of Plateau; nucleation assay; 10 mole % [%] | Fold Increase in Lag Time; nucleation assay; 10 mole % [fold] | Fold Increase in Lag Time; nucleation assay; 33 mole % [fold] |
| --- | --- | --- | --- | --- | --- |
| B16 | 73 | 2.6 | – | – | – |
| B17 | 86 | 1.3 | – | – | – |
| B18 | 100 | > 5 | – | – | – |
| B19 | ~0 | ~1 | – | – | – |
| B20 | ~0 | 1.2 | – | – | – |
| B21 | ~0 | ~1 | – | – | – |
| B22 | ~0 | ~1 | – | – | – |
| B23 | ~0 | 3.1 | ~0 | 1.6 | – |
| B24 | – | – | ~0 | 2.7 | 5.6 |

Molecular target: natural β-amyloid peptide β-AP1-40 (human)
Experiment: cell-based or functional assay
Remark: another data set of the same source

| Binder | % Iext'n; seeded extension assay; 25 mole % [%] | % Inucl'n; nucleation assay; 100 mole % [%] | ΔLag; nucleation assay; 100 mole % [ratio] |
| --- | --- | --- | --- |
| B16 | 31 | 73 | 2.6 |
| B11 | – | -18 | 1.1 |
| B17 | 0 | 86 | 1.3 |
| B18 | 91 | 100 | > 5 |
| B19 | 0 | -7 | 0.8 |
| B21 | 44 | -16 | 1.1 |
| B22 | 8 | 0 | 1.1 |
| B23 | – | -23 | 3.1 |
| B24 | 52 | 70 | 5.4 |
